Experimental data from PMC10960864, “Bidirectional ATP-driven transport of cobalamin by the mycobacterial ABC transporter BacA” (Nature Communications, 2024).

Tested on: Nc1ncnc2c1ncn2[C@@H]1O[C@H](COP(=O)(O)OP(=O)(O)OP(=O)(O)O)[C@@H](O)[C@H]1O
Experiment: purified protein
Details: import direction, Mg-ATP varied, 65 µM cyanocobalamin, pH 7.5, 30 °C, 1 mM DTT

BacAMm (Mycobacterium marinum M) gave a Km of 250 µM.
